{
  "source": "paper PMC2137869",
  "key": {"[1]": {"target": "H chains of rabbit gamma2 globulin, first Sephadex G-100 peak (Fraction H) (rabbit)", "assay": "sucrose density gradient ultracentrifugation"}, "[2]": {"target": "H chains of non-specific rabbit gamma2 globulin (rabbit)", "assay": "sucrose density gradient ultracentrifugation"}},
  "note": "Values joined by “and” are separate entries in the source; they are usually repeats but may differ in a detail not shown here. Equal entries are not always repeated.",
  "data": [
    {"substance": "L chains of non-specific rabbit gamma2 globulin", "values": [
      {"measurement": "per cent of the I131 label (L chains) in the >7S fraction", "setting": "[1]", "value": 9, "unit": "per cent"},
      {"measurement": "per cent of the H chains in the 7S peak", "setting": "[2]", "value": "60 per cent and 70 per cent"}
    ]}
  ]
}
